# Results as given in patent US20240317855A1 (EUREKA THERAPEUTICS, published 2024).
# B1: anti-GPC3 CSR (chimeric co-stimulatory receptor: anti-GPC3 scFv fused to CD28 transmembrane and intracellular signaling sequences) (other)
# chain: QSVLTQPPSVSAAPGQRVTISCSGTRSNIGSDYVSWYQHLPGTAPKLLVYGDNLRPSGIPDRFSASKSGTSATLGITGLQTGDEADYYCGTWDYTLNGVVFGGGTKLTVLGSRGGGGSGGGGSGGGGSLEMAQVQLVESGGGLVQPGGSLRLSCAASGFTFSSYAMSWVRQAPGKGLEWVSVIYSGGSSTYYADSVKGRFTISRDNSKNTLYLQMNSLRAEDTAVYYCARTSYLNHGDYWGQGTLVTVSSAAAIEVMYPPPYLDNEKSNGTIIHVKGKHLCPSPLFPGPSKPFWVLVVVGGVLACYSLLVTVAFIIFWVRSKRSRLLHSDYMNMTPRRPGPTRKHYQPYAPPRDFAAYRS
# Target: GPC3 (glypican-3) on HEPG2 human liver cancer cells (human, UniProt P51654 25-580)
# Sequence (P51654 25-580): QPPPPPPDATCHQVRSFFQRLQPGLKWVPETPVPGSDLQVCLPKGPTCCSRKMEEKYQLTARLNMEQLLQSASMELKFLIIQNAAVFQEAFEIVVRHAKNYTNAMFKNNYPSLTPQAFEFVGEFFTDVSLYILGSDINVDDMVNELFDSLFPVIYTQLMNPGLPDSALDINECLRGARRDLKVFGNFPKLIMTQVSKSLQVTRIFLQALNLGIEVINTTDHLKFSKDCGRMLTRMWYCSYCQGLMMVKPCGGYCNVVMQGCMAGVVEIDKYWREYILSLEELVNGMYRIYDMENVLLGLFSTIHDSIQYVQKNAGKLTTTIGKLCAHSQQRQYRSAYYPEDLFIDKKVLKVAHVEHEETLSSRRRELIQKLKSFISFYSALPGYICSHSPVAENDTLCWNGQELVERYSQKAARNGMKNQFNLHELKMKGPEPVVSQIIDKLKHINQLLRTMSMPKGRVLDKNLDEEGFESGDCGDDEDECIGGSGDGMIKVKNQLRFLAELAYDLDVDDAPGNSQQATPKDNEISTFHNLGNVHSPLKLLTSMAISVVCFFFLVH
# Assay: cell-based or functional assay
protein,measurement,value
B1,"specific killing of HEPG2 (AFP+/GPC3+) target cells by T cells expressing anti-AFP caTCR-1 (caTCR-1-0 or caTCR-1-TM5) and the anti-GPC3 CSR; Cytox 96 LDH assay, E:T 2.5:1, 16 hr",55 to 65%
